Measured values as given in article PMC3675495.

Molecular target: Su(Hw) (Drosophila (endogenous in embryo nuclear extract)) (UniProt P08970)
Test: co-IP

Chain of UniProt P08970 (P08970 whole entry): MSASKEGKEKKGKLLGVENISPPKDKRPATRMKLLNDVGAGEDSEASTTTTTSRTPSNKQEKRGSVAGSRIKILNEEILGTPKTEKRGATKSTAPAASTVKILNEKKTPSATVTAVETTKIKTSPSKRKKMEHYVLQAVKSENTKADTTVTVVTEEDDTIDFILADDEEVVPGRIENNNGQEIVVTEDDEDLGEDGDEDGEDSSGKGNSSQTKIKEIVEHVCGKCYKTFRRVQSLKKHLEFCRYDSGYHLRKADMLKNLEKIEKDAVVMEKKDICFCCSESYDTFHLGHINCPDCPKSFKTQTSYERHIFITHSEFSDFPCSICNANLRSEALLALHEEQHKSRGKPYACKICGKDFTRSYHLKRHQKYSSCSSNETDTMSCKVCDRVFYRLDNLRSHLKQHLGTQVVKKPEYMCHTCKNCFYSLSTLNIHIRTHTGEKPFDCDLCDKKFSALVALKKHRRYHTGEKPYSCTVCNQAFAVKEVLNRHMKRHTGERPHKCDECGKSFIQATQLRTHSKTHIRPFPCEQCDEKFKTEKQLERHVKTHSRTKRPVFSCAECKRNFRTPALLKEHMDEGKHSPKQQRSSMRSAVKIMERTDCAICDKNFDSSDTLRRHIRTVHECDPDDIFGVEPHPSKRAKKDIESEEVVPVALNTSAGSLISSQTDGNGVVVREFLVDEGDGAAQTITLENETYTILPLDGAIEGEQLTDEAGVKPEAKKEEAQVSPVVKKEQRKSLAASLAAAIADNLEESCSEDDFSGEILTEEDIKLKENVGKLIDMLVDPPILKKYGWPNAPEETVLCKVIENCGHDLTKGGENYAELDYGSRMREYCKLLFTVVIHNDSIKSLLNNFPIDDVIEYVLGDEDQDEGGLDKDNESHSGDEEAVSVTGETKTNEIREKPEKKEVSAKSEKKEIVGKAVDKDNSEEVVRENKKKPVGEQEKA

- percent co-precipitated: 0.5%
Substance: OSA, Q8IN94 1-2716
